In article PMC3605678 one finds fold reduction of binding affinity against the wild-type pair data, which are given here for 1 substance.

The assay concerns the target ERK5ΔC385–399 (human) (UniProt Q13164). The experiment in a line: fluorescence polarisation. Background: Fluorescence polarisation rises when a labelled molecule tumbles more slowly, as on binding a larger partner.

Sequence of MKK5 PB1-D construct (16–130), unlabeled (Q13163 16-130): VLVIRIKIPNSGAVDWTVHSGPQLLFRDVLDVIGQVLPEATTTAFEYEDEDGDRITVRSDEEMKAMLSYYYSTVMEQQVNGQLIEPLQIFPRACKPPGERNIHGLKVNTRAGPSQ

“MKK5 PB1-D construct (16–130), unlabeled (from UniProt Q13163 16-130) (domain or fragment)” showed a fold reduction of binding affinity against the wild-type pair of 20 fold.
